Values of other authors, collected in PMC7143314.
pKd: −log10 of the molar value.

Target: RAF RBD (Homo sapiens) (UniProt P04049)

pKd: 7.70
Substance: RAS (from UniProt P01116)
